Earlier results on 4 substances are cited in publication PMC4512752.

Read-outs that look alike come from different tables or passages of the source.

What all share (assay): MALLS
The target in series [1] is Arrestin-1 (Homo sapiens) (UniProt P10523).
Series [2] deals with Arrestin-3 (Bos taurus) (UniProt P32120).
Series [3] has the same target. This is another data set of the same source.
Series [4] addresses Arrestin-1 (Mus musculus) (UniProt P20443).
The target in series [5] is Arrestin-2 (Bos taurus) (UniProt P17870).
Series [6] shares this target. This is another data set of the same source.

One may read the Kd as the constant that tells how readily two partners part at equilibrium. On to Arrestin-1 (from UniProt P10523), for which the Kd in series [1] is 2.95 µM. Consider Arrestin-3 (from UniProt P32120), for which the results for the Kd in series [2] and in series [3] were 7.8 µM and 100 µM, respectively. As to Arrestin-1 (from UniProt P20443), the Kd in series [4] was 57.5 µM. For Arrestin-2 (from UniProt P17870), the Kd in series [5] is 100 µM; in series [6] it was 5.5 µM.
